Experimental data: US20050186659A1 (published 2005)

Target: the molecule itself
Experiment: analytical ultracentrifugation (sedimentation velocity) in buffer with 0.4-0.6 M GuHCl; self-association of the enzyme
Protocol: Analytical ultracentrifugation. Velocity sedimentation experiments were performed using an XL-A analytical ultracentrifuge (Beckman Instruments, Palo Alto, Calif.) with an An60-Ti rotor. 11β-HSD1 in 50 mM Tris-HCl, pH 8.0: 1 mM TCEP and increasing concentrations of GuHCl (0-2.0 M) was centrifuged at 40,000 rpm. Solutions containing the same components except the protein were used as references. Scans were collected every 5 min at 280 nm absorption wavelength and the radial distance of the sedimenting boundary r was determined. The sedimentation coefficient was calculated by the gradient of the plot of ln(r) vs ω²t, where ω was the angular velocity and t was the time.
The association state of 11β-HSD1 was investigated by analytical ultracentrifugation. […] When incubated in buffer containing 0.4 M GuHCl, the guinea pig enzyme appeared to be constituted by two major populations (FIG. 5B). This behavior was even more pronounced at 0.6 M GuHCl (FIG. 5C). A molecular weight of approximately 60 kDa can be derived from the sedimentation coefficient of the larger peak, corresponding to a dimeric 11β-HSD1 population, while the second peak may originate from a smaller portion of tetrameric enzyme.

B1: recombinant guinea pig 11β-hydroxysteroid dehydrogenase type 1 (11β-HSD1), catalytic domain with His6 tag (enzyme)
chain: MGSSHHHHHHSSGLVPRGSHMNEKFRPEMLQGKKVIVTGASKGIGREIAYHLAKMGAHVVVTARSKEALQKVVARCLELGAASAHYIAGSMEDMTFAEEFVAEAGNLMGGLDMLILNHVLYNRLTFFHGEIDNVRKSMEVNFHSFVVLSVAAMPMLMQSQGSIAVVSSVAGKITYPLIAPYSASKFALDGFFSTLRSEFLVNKVNVSITLCILGLIDTETAIKATSGIYLGPASPKEECALEIIKGTALRQDEMYYVGSRWVPYLLGNPGRKIMEFLSAAEYNWDNVLSNEKLYGRWA
notes: also called guinea pig 11β-HSD1; guinea pig enzyme
  binding result: binds
